Here are results for eleven molecules from patent US20210230272A1.

The target of assay [1] is human CLDN18.2 (human), P56856. As to the kind of experiment: cell-based or functional assay.
In assay [2] the target is human CLDN18.2 (human) (UniProt P56856). As to the kind of experiment: cell ELISA, hCLDN18.2+ cells. (In general: An ELISA detects its analyte on a solid surface through an enzyme-linked reagent.)
The target in another assay is mice CLDN18.2 (mice) (UniProt P56857). As to the kind of experiment: cell ELISA, mCLDN18.2+ cells.
Assay [3] addresses human CLDN18.2 (human) (UniProt P56856). As to the kind of experiment: flow cytometry, CF633 labeled antibody 10 µg/ml, hCLDN18.2+ cells. (In general: Flow cytometry measures light scatter and fluorescence of single cells or particles in a stream.)
For assay [4] the target is unchanged. As to the kind of experiment: cell ELISA, hCLDN18.2+ cells. This is another data set of the same source.
Assay [5] has the same target. In words: flow cytometry, CF488, 10 µg/ml.
For assay [6] the target is unchanged. In words: cell-based or functional assay.
Assay [7] has the same target. As to the kind of experiment: KinExA, antibody titrated with hCLDN18.2+ cells. A general note: In KinExA the mixture passes briefly over coated beads that capture the unbound partner.
Assay [8] shares this target. In words: flow cytometry, CF633, 10 µg/ml.
Assay [9] has the same target. In words: flow cytometry, CF488 labeled antibody 10 µg/ml, hCLDN18.2+ cells.
For assay [10] the target is unchanged. As to the kind of experiment: flow cytometry, CF633, 1 µg/ml.
Assay [11] has the same target. In words: flow cytometry, CF488 labeled antibody 1 µg/ml, hCLDN18.2+ cells.
For assay [12] the target is unchanged. In words: flow cytometry, CF633 labeled antibody 1 µg/ml, hCLDN18.2+ cells.

Substitutions are numbered along the chain they refer to. Where two headings read alike, the source gives them in different places. Some results are limits rather than exact numbers.

B1: Ab51 (antibody, IgG1, V domains shown)
VL: DIVMTQSPDSLAVSLGERATINCKSSQSLLNTGNNKNYLAWYQQKPGQPPKLLIYWASTRESGVPDRFSGSGSGTDFTLTISSLQAEDVAVYYCQNDYFYPFTFGQGTKLEIK
VH: QVQLVQSGAEVKKPGSSVKVSCKASGYAFSNYLIEWVRQAPGQGLEWMGLINPGSGGTNYNEKFKGRVTITADESTSTAYMELSSLRSEDTAVYYCARVYYGNTFAYWGQGTLVTVSS
B1 returned a CDC activity, EC50 in assay [1] of 2.12 µg/mL.

B2: Ab30 (antibody, V domains shown)
VH: B1 VH with R67K, E74K
VL: B1 VL with N22S, T32S, N35Q, A40T
The EC50 is the midpoint of the concentration-response curve. Low readings indicate an effect from little substance, high ones a need for much substance. In the assay with human CLDN18.2 (human) [2], B2 had an EC50 of 11.4 nM and an Emax of 0.67.

B3: Ab28 (antibody, V domains shown)
VH: B1 VH with R67K, E74K, T104S
VL: B1 VL
In the assay with human CLDN18.2 (human) [2], B3 returned an EC50 of 0.154 nM and an Emax of 1.56.

B4: Ab23 (antibody, V domains shown)
VH: B1 VH with R67K, E74K, N103T, T104S
VL: B1 VL
B4: in the assay with human CLDN18.2 (human) [2], the EC50 was > 40 nM and the Emax amounted to 0.147.

B5: Ab32 (antibody, V domains shown)
VH: B1 VH with R67K, E74K
VL: B1 VL with T32S
Consider B5, for which, in the assay with human CLDN18.2 (human) [2], the EC50 was found to be 0.197 nM and the Emax was determined as 1.41.

B6: Ab51 (antibody, IgG1, V domains shown)
VH: B1 VH
VL: B1 VL
For B6, in the assay with mice CLDN18.2 (mice), the EC50 is 0.474 nM and the Emax was found to be 1.91.

B7: Ab21 (antibody, V domains shown)
VH: B1 VH with R67K, E74K, N103T, T104S
VL: B1 VL with N31T, T32S
For B7, in the assay with human CLDN18.2 (human) [2], the EC50 was > 16 nM and the Emax turned out to be 0.145.

B8: Ab34 (antibody, V domains shown)
VH: B1 VH with R67K, E74K
VL: B1 VL with N22S, T32S
In the assay with human CLDN18.2 (human) [2], B8 registered an EC50 of 0.151 nM and an Emax of 1.42.

B9: Ab22 (antibody, V domains shown)
VH: B1 VH with R67K, E74K
VL: B1 VL with N31T, T32S
In the assay with human CLDN18.2 (human) [2], B9 gave an EC50 of 1.37 nM and an Emax of 0.827.

B10: Ref (control anti-human CLDN18.2 antibody) (antibody, INN chains, looked up, V domains shown)
VH: QVQLQQPGAELVRPGASVKLSCKASGYTFTSYWINWVKQRPGQGLEWIGNIYPSDSYTNYNQKFKDKATLTVDKSSSTAYMQLSSPTSEDSAVYYCTRSWRGNSFDYWGQGTTLTVSS
VL: DIVMTQSPSSLTVTAGEKVTMSCKSSQSLLNSGNQKNYLTWYQQKPGQPPKLLIYWASTRESGVPDRFTGSGSGTDFTLTISSVQAEDLAVYYCQNDYSYPFTFGSGTKLEIKR
What is called Kd is the free concentration of one partner at which half of the binding sites on the other are occupied at equilibrium, for simple one-to-one binding. Lower therefore signals tighter binding. In the assay with human CLDN18.2 (human) [2], B10 showed a concentration for a half-maximal effect (EC50) of 0.249 nM and an Emax of 1.41. This molecule gave a Binding value (FACS fluorescence intensity) with human CLDN18.2 (human) [3] of 198. In the assay with human CLDN18.2 (human) [4], this molecule came in with an EC50 of 0.345 nM and an Emax of 0.98. In the assay with human CLDN18.2 (human) [5], this molecule yielded a binding value, times higher than the background of 4 times. In the assay with mice CLDN18.2 (mice), the half-maximal effective concentration (EC50) is 1.04 nM and the Emax was determined as 1. In the assay with human CLDN18.2 (human) [6], this molecule yielded an ADCC activity, EC50 of 1.39 µg/mL; a CDC activity, EC50 of 2.31 µg/mL; an inducing the apoptosis of tumor cells at 10 µg/ml (LDH release) of 15.3%; an inducing the apoptosis of tumor cells at 30 µg/ml (LDH release) of 19.6%. In the assay with human CLDN18.2 (human) [6], this molecule displayed an inhibition rate % of proliferation, 1 µg/ml (CCK-8) of 2.34%; an inhibition rate % of proliferation, 10 µg/ml (CCK-8) of 2.94%; an inhibition rate % of proliferation, 30 µg/ml (CCK-8) of 3.9%. In the assay with human CLDN18.2 (human) [7], this molecule returned a Kd of 0.144 nM. This molecule gave a binding value, times of the background in the assay with human CLDN18.2 (human) [8] of 8.5 times. Also, the Binding value (FACS fluorescence intensity) in the assay with human CLDN18.2 (human) [9] came out at 17900. Moreover, in the assay with human CLDN18.2 (human) [10], the binding value, ratio to the background stood at 2.7. The same molecule displayed a Binding value (FACS fluorescence intensity) with human CLDN18.2 (human) [11] of 1940. The molecule further had a Binding value (FACS fluorescence intensity) with human CLDN18.2 (human) [12] of 62.5.

B11: CAR1a (CAR with Ab10 scFv) (protein)
chain: DIVMTQSPDSLAVSLGERATISCKSSQSLLNSGNQKNYLTWYQQKPGQPPKLLIYWASTRESGVPDRFSGSGSGTDFTLTISSLQAEDVAVYYCQNDYFYPFTFGQGTKLEIKGGGGSGGGGSGGGGSQVQLVQSGAEVKKPGSSVKVSCKASGYAFSNYLIEWVKQAPGQGLEWIGLINPGSGGTNYNEKFKGKATITADKSTSTAYMELSSLRSEDTAVYYCARVYYGNSFAYWGQGTLVTVSSTTTPAPRPPTPAPTIASQPLSLRPEACRPAAGGAVHTRGLDFACDIYIWAPLAGTCGVLLLSLVITLYCKRGRKKLLYIFKQPFMRPVQTTQEEDGCSCRFPEEEEGGCELRVKFSRSADAPAYKQGQNQLYNELNLGRREEYDVLDKRRGRDPEMGGKPRRKNPQEGLYNELQKDKMAEAYSEIGMKGERRRGKGHDGLYQGLSTATKDTYDALHMQALPPR
In the case of B11, in assay [1], the specific killing rate of target cells, %, CART1a, 1:1 was 19.1%; the specific killing rate of target cells, %, CART1a, 3:1 came out at 18.3%; the specific killing rate of target cells, %, CART1a, 10:1 came to 32.2%; the specific killing rate of target cells, %, CART1a, 20:1 is 34.8%. For the same molecule, in assay [1], the specific killing rate of target cells, %, CART3a, 1:1 was found to be 3.9%; the specific killing rate of target cells, %, CART3a, 3:1 was found to be 3.1%; the specific killing rate of target cells, %, CART3a, 10:1 turned out to be 21.8%; the specific killing rate of target cells, %, CART3a, 20:1 is 24.3%. Further, in assay [1], the specific killing rate of target cells, %, CART3ab10, 1:1 is 0%; the specific killing rate of target cells, %, CART3ab10, 3:1 stood at 0%; the specific killing rate of target cells, %, CART3ab10, 10:1 was 12.2%; the specific killing rate of target cells, %, CART3ab10, 20:1 was found to be 21.2%. Also, in assay [1], the specific killing rate of target cells, %, CART4a, 1:1 is 0%; the specific killing rate of target cells, %, CART4a, 3:1 is 1.2%; the specific killing rate of target cells, %, CART4a, 10:1 was 8.8%; the specific killing rate of target cells, %, CART4a, 20:1 was found to be 19.8%.
